The values below come from article PMC6017014, “VpStyA1/VpStyA2B of Variovorax paradoxus EPS: An Aryl Alkyl Sulfoxidase Rather than a Styrene Epoxidizing Monooxygenase” (Molecules : A Journal of Synthetic Chemistry and Natural …, 2018).

The subject of series [1] is Cc1cc2nc3c(=O)[nH]c(=O)nc-3n(C[C@H](O)[C@H](O)[C@H](O)COP(=O)(O)OP(=O)(O)OC[C@H]3O[C@@H](n4cnc5c(N)ncnc54)[C@H](O)[C@@H]3O)c2cc1C. Kind of series: purified protein. It is filed as biochemical, Variovorax paradoxus. Conditions: 20 mM Tris-HCl pH 7.5, 30 °C.
Another series has as its target T1, VpStyA2B (Variovorax paradoxus, UniProt E6V139).
T1 construct: gene styA2B
Briefly: NADH consumption at […] nm, Michaelis-Menten fit. Conditions: linker AREAV (408-412) replaced/extended; NADH in excess, concentrations as for wild type; 20 mM Tris-HCl pH 7.5, 30 °C; read-out: Acceptor FAD ^1 / Km. The series is classed as biochemical.

For series [2], the system named is Cc1cc2nc3c(=O)[nH]c(=O)nc-3n(C[C@H](O)[C@H](O)[C@H](O)COP(=O)(O)O)c2cc1C. Kind of series: purified protein. The series is classed as biochemical, Variovorax paradoxus. The conditions noted are these: NADH 164 µM, FMN 4.1-90.2 µM, 20 mM Tris-HCl pH 7.5, 30 °C.
Where [3] appears, read: 408-AAAAA linker mutant, NADH in excess, concentrations as for wild type.
The mark [4] stands for this setting: 408-HHHHH linker mutant, NADH in excess, concentrations as for wild type.
Where [5] appears, read: 408-WYHHH linker mutant, NADH in excess, concentrations as for wild type.
Setting [6] is: 408-TIVVV linker mutant, NADH in excess, concentrations as for wild type.

T1 sequence (E6V139 1-578): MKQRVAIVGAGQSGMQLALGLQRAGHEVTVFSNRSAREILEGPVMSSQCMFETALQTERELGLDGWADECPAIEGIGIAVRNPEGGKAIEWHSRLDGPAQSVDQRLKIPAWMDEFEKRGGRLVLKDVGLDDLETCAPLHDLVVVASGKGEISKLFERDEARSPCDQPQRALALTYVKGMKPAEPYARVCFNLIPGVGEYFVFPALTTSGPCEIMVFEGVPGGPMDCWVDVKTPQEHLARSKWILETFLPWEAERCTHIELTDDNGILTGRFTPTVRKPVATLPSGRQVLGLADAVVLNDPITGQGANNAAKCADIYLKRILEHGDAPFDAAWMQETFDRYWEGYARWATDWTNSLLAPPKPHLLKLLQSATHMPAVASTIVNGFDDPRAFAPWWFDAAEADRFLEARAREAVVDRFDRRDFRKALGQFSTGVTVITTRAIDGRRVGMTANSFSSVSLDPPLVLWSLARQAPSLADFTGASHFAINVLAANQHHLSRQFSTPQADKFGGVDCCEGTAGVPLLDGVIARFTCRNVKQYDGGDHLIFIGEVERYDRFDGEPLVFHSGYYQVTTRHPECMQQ

As to “VpStyA2B (Variovorax paradoxus EPS; E410A/R409A/V412A)”, in series [1] (setting [3]), the Km was determined as 1.8 µM, the Vmax worked out at 8.8 µmol/min/mg and the kcat/Km is 5.21e+06 M⁻¹ s⁻¹.

As for `Cc1cc2nc3c(=O)[nH]c(=O)nc-3n(C[C@H](O)[C@H](O)[C@H](O)COP(=O)(O)OP(=O)(O)OC[C@H]3O[C@@H](n4cnc5c(N)ncnc54)[C@H](O)[C@@H]3O)c2cc1C` [FAD], the Km at VpStyA2B came to 7.4 µM.

Consider VpStyA2B (Variovorax paradoxus EPS), for which, in series [2], the Km was 45.9 ± 6.8 µM, the Vmax amounted to 26 µmol/min/mg, the catalytic constant (kcat) worked out at 28.7 ± 1.9 s⁻¹ and the kcat/Km amounted to 570000 M⁻¹ s⁻¹. In series [1] (NADH 164 µM, FAD 6.3-78.8 µM), the Km was 33.6 ± 4.0 µM, the maximal velocity (Vmax) came to 20.2 µmol/min/mg, the catalytic constant (kcat) was 22.3 ± 1.1 s⁻¹ and the kcat/Km was found to be 640000 M⁻¹ s⁻¹.

As to “VpStyA2B (Variovorax paradoxus EPS; A408H/A411H/E410H/R409H/V412H)”, in series [1] (setting [4]), the Km was determined as 14.5 µM, the maximum rate (Vmax) was determined as 3.1 µmol/min/mg and the kcat/Km is 230000 M⁻¹ s⁻¹.

As to “VpStyA2B (Variovorax paradoxus EPS; A408W/A411H/E410H/R409Y/V412H)”, in series [1] (setting [5]), the Km was determined as 3.2 µM, the Vmax was 6.9 µmol/min/mg and the kcat/Km was 2.3e+06 M⁻¹ s⁻¹.

As for “VpStyA2B (Variovorax paradoxus EPS; A408T/A411V/E410V/R409I)”, in series [1] (setting [6]), the Km was found to be 5.1 µM, the Vmax stood at 3.1 µmol/min/mg and the kcat/Km was determined as 650000 M⁻¹ s⁻¹.

For orientation: Vmax means the top rate of the reaction or transport when substrate is in excess. As a reminder, the kcat/Km is the second-order rate constant that governs catalysis at low substrate concentration. One may read the kcat as the maximal rate divided by the concentration of active sites.
